The experiment has as its target HIV-1 Env, strain HXB2 (HIV-1) (UniProt P04578).

5-Helix (designed binder) registered an IC50 of neutralisation of HXB2 Env-pseudotyped lentivirus, HOS-CD4-CCR5 cells of 8.2 nM.
